Paper PMC7364481, “Identification and validation of the phosphorylation sites on Aristaless-related homeobox protein”

How the values were obtained:
Experiment in all cases: EMSA; 5 ug protein per lane; LightShift chemiluminescent EMSA kit, 6% polyacrylamide gel, 5 ug protein per lane; binding buffer, salt, pH and temperature not stated (protein eluted in 50 mM Tris-Cl pH 8.0, 30 mM glutathione)
Conditions in all cases: protein: recombinant; tags: N-terminal GST (pGEX-4T-2); label: biotin; blunt
GST-ARX(220-392) S266E = GST-ARX(220-392) S266E (UniProt O35085 220-392, S266E)
GST-ARX(220-392) S266A = GST-ARX(220-392) S266A (UniProt O35085 220-392, S266A)
GST-ARX(220-392) WT = GST-ARX(220-392) WT (UniProt O35085 220-392)

Measured: binding result

GST-ARX(220-392) WT, sequence (O35085 220-392): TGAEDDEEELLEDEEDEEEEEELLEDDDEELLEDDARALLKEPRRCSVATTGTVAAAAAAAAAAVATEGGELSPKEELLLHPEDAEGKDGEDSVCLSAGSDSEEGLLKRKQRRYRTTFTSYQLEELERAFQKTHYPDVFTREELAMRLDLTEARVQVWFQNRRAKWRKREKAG
GST-ARX(220-392) S266A, sequence (O35085 220-392 S266A): as the sequence (O35085 220-392) above, with S47A counted along it
GST-ARX(220-392) S266E, sequence (O35085 220-392 S266E): as the sequence (O35085 220-392) above, with S47E counted along it

B1: SIX1 probe (dsDNA)
DNA 1: TCTTAACATTAAGGTAATTAAATATGAGCTCAC
DNA 2: GTGAGCTCATATTTAATTACCTTAATGTTAAGA
binds: all assays above
